Literature values as cited in PMC6716120.

Biological target: hexon (Human adenovirus 5) (UniProt P04133)
Sequence (P04133 2-952): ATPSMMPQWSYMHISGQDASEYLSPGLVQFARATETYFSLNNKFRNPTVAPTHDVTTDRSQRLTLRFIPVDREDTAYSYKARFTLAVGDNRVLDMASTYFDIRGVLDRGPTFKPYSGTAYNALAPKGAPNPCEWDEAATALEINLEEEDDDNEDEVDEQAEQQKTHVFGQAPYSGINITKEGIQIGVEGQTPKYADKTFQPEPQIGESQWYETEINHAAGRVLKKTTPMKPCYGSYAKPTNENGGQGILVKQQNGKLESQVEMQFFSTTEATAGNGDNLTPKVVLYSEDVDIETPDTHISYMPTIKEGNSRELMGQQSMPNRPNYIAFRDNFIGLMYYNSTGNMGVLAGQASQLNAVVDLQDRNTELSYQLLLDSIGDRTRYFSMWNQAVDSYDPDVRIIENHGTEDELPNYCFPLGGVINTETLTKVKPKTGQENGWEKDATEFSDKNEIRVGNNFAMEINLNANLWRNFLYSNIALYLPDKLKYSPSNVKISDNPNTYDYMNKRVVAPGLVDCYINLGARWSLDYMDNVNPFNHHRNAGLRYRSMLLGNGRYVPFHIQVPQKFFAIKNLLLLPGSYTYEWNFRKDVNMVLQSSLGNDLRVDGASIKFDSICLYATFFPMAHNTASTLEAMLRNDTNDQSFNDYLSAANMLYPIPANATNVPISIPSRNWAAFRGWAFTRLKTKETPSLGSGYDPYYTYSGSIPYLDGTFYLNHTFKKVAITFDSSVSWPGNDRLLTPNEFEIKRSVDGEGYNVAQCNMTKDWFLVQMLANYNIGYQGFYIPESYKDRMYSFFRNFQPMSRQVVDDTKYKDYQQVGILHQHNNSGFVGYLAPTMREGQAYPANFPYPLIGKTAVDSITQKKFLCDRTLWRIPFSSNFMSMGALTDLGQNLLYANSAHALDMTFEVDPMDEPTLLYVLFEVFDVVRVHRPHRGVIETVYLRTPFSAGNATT

Chain of coagulation factor X (P00742 41-488): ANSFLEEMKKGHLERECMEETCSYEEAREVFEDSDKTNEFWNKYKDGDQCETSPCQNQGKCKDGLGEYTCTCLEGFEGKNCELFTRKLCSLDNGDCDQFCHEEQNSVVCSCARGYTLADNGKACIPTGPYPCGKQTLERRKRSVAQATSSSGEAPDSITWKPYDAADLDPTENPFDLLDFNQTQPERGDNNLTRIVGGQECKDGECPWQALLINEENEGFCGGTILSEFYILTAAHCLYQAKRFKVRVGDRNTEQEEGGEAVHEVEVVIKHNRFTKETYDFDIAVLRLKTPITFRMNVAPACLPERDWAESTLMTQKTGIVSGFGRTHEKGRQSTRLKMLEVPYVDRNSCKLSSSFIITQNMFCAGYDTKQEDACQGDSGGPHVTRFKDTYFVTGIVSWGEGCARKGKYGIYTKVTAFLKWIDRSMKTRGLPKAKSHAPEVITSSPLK

For “coagulation factor X (from UniProt P00742)”, which Kd is on record?
Its Kd is 2 nM.
